Test results reported in patent publication US20180299467A1.

What was measured:
[1] = target: F-actin; test: co-sedimentation with F-actin in the presence of TM, densitometry of pellet (FIG. 3C)
[2] = system: F-actin
[3] = system: citrullinated F-actin (treated with PAD2)

| Substance | percent of TnI present in the pellet [1] | actomyosin HMM-ATPase activity [2] | decrease in actomyosin HMM-ATPase activity against non-citrullinated HMM [2] | actomyosin HMM-ATPase activity (rate of ATP hydrolysis) [3] | increase in actomyosin HMM-ATPase rate against unmodified F-actin [3] |
| --- | --- | --- | --- | --- | --- |
| cardiac troponin I (TnI), non-citrullinated | > 95% | – | – | – | – |
| citrullinated cardiac troponin I (TnI treated with PAD2) | > 95% | – | – | – | – |
| citrullinated heavy meromyosin (HMM treated with PAD2) | – | 0.22±0.002 nmol Pi | corresponding to 30% decrease in the enzyme activity | 0.368±0.005 nmol Pi | – |
| heavy meromyosin (HMM), non-citrullinated | – | 0.32±0.01 nmol Pi | – | – | increased actomyosin HMM-ATPase rate by 55% compared to the unmodified F-actin |
